Laboratory results as given in patent US8058228B2, “Leptin peptide antagonists” (Boston Biomedical Research Institute, priority 2004, dated 2011).

Molecular target: T1, OB-R (Homo sapiens, UniProt P48357)
T1 construct: After confirming via Western that the primary EEC and ESC and endometrial cell lines utilized herein had OB-R; endogenous in cells; host or cells: primary human EEC and ESC; Ishikawa (ECACC 9832301) and HES cell lines
T1 sequence (P48357 22-1165): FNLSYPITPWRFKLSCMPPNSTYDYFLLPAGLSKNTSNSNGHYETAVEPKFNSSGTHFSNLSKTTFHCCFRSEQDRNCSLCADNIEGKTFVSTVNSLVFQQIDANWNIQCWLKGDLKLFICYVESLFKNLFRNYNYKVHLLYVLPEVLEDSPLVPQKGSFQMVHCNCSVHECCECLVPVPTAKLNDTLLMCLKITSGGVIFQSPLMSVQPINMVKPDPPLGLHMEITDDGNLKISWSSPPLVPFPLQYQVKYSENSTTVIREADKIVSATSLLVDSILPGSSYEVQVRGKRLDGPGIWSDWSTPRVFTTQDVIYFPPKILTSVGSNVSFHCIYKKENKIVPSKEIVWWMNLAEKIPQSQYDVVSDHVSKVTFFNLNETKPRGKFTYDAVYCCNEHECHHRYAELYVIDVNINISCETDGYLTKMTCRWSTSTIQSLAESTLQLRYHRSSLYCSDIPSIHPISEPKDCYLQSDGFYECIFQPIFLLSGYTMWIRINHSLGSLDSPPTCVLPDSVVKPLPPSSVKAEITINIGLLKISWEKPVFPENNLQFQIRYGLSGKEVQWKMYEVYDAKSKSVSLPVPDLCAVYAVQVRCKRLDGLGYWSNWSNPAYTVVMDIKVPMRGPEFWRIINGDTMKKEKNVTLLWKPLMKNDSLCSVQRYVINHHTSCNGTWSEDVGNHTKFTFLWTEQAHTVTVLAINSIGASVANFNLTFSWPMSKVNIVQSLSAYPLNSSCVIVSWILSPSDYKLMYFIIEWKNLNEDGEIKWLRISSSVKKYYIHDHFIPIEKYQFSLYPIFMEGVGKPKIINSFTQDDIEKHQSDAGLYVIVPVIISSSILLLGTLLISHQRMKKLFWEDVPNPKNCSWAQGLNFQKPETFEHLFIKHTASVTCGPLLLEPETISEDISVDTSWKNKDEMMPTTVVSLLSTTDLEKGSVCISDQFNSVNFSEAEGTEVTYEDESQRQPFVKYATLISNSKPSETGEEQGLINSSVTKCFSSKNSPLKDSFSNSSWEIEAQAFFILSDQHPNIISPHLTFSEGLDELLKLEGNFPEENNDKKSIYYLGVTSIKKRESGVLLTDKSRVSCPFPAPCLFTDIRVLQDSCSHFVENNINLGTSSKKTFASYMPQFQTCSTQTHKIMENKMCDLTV
Test: IL-1β and IL-1Ra levels in conditioned medium of human endometrial epithelial cells (ELISA)
Assay type: cell-based
Settings: EEC, leptin 10 nM, 24 h; for effect on leptin-induced increase in IL-1Ra levels / effect on leptin-induced increase in IL-1β levels: LPA-2 30 μM
Method: Primary human endometrial cells (ESC and EEC) were cultured for 5-9 days in DMEM-F12 medium containing 5% fetal bovine serum (FBS), 5 μg/ml insulin, 1% amphopthericin B, 100 μg/ml streptomycin and 100 U/ml penicillin until they were 80% confluent. Two types of endometrial epithelial cell lines, HES (originally derived from a benign proliferative endometrium) and Ishikawa (human endometrial epithelial adenocarcinoma, ECACC 9832301, Wiltshire, England) were cultured under the same conditions described above. The cells were washed twice with 100 mM phosphate saline buffer (PBS), pH 7.2 and cultured for additional 2 days in the same medium but without FBS (basal medium). Cells were washed as described before and cultured in basal medium containing leptin (0, 3, 10 or 62 nM) or IL-1β (0.6, 3 and 10 nM).
The anti-OB-R antibody (10 and 20 μg/ml) and LPA-2, a specific inhibitor of OB-R (3, 120, 300 nM or 30 μM) were used to assess whether leptin-induced effects were regulated primarily by the OB-R. Non-specific species-matched IgGs to the OB-R antibody and a scrambled version of LPA-2 (LPA-2Sc) served as negative controls (Gonzalez and Leavis, Endocrine 21: 185-195 (2003)). Inhibitors of IL-1R were used (monoclonal antibody anti-IL-1R tl and IL-1Ra) to assess whether leptin activated IL-1 induced signaling pathways or just activated similar components responsible for LIF/LIF-R expression. Treatment with the cytokine, inhibitor or the two combined was implemented for 5, 15, 30 and 60 min, and 24 and 48 h. The cells were prepared for Western blot analysis. The conditioned media was collected, lyophilized and stored at −80° C. until analysis for LIF, IL-1β and IL-1Ra by ELISA could be performed. Duplicate wells were run for each treatment and the experiments repeated at least three times with different cell preparations.
Conditioned media from cells cultured under the experimental conditions described above were used to quantify the secretion of LIF, IL-1β and IL-1Ra by ELISA (Quantikine®, R&D Systems). The experiments were replicated three times and standards, controls, and samples were assayed in duplicate. Cytokine concentrations as determined by ELISA were within the range of the standard curve and were expressed in pg/ml/mg protein. The intra- and interassay coefficients of variation were between 5-8% and 8.5-10%, respectively. The lowest detectable concentration of each cytokine by ELISA was LIF (9 pg/ml), IL-1 (0.11 pg/ml) and IL-1Ra (15.6 pg/ml). These concentrations are similar to those reported by the manufacturer. LIF-ELISA is reported by the manufacturer to have a sensitivity of less than 8 pg/ml for both natural and recombinant human LIF and 100% specificity (no significant cross-reactivity or interference with a diversity of human and mouse cytokines and growth factors was observed). The performance characteristics for human IL-1β and IL-1Ra ELISAs reported are: 100% specificity, sensitivity 0.1 pg/ml and 14 pg/ml, respectively.

Substance: SRNVIQISNDLENLRDLLHVLAFSKS [LPA-2, 26 amino acid peptide, residues 70-95 of helix III of the human leptin molecule; leptin peptide antagonist]
- effect on leptin-induced increase in IL-1Ra levels: abrogated
- effect on leptin-induced increase in IL-1β levels: abrogated

Substance: VAEVLNRSDLIQRISFSLDLNNSKLH [LPA-2Sc, scrambled version of LPA-2, negative control, reference compound]
- effect on leptin-induced increase in IL-1Ra levels: not affected
- effect on leptin-induced increase in IL-1β levels: not affected

Substance: leptin: human recombinant leptin (R&D Systems), OB-R ligand used as stimulus
- IL-1Ra levels after leptin: elevated levels
- IL-1β levels after leptin: elevated levels
